Source: article PMC9458455 (Nucleic Acids Research, 2022)

T1: translation elongation factor eEF1Bβ, full-length (human), P29692
T1 chain: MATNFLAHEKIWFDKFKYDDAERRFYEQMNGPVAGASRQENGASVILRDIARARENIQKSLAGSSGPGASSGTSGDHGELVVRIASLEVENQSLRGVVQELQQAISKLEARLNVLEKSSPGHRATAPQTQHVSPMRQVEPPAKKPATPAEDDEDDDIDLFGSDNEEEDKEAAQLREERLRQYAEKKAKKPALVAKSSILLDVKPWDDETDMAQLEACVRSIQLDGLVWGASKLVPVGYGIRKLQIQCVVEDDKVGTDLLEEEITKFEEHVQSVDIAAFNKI

B1: translation elongation factor eEF1Bβ, full-length, P29692 1-281 (natural protein)
chain: T1 chain
B2: translation elongation factor eEF1A2 (natural protein, UniProt Q05639 1-463, looked up)
chain: MGKEKTHINIVVIGHVDSGKSTTTGHLIYKCGGIDKRTIEKFEKEAAEMGKGSFKYAWVLDKLKAERERGITIDISLWKFETTKYYITIIDAPGHRDFIKNMITGTSQADCAVLIVAAGVGEFEAGISKNGQTREHALLAYTLGVKQLIVGVNKMDSTEPAYSEKRYDEIVKEVSAYIKKIGYNPATVPFVPISGWHGDNMLEPSPNMPWFKGWKVERKEGNASGVSLLEALDTILPPTRPTDKPLRLPLQDVYKIGGIGTVPVGRVETGILRPGMVVTFAPVNITTEVKSVEMHHEALSEALPGDNVGFNVKNVSVKDIRRGNVCGDSKSDPPQEAAQFTSQVIILNHPGQISAGYSPVIDCHTAHIACKFAELKEKIDRRSGKKLEDNPKSLKSGDAAIVEMVPGKPMCVESFSQYPPLGRFAVRDMRQTVAVGVIKNVEKKSGGAGKVTKSAQKAQKAGK

Legend:
[1] = target: T1, translation elongation factor eEF1Bβ, …; test: AUC; details: remark: other sources report otherwise
[2] = target: T1, translation elongation factor eEF1Bβ, …; test: AUC; details: remark: other sources report otherwise
[3] = target: T1, translation elongation factor eEF1Bβ, …; test: AUC; details: remark: other sources report otherwise
[4] = target: eEF1B(αβγ)3 complex, reconstituted from full-length eEF1Bα, eEF1Bβ and eEF1Bγ (human, UniProt P24534 1-225; P29692 1-281; P26641 1-437); test: native gel or EMSA
eEF1B(αβγ)3 complex, reconstituted from full-length eEF1Bα, eEF1Bβ and eEF1Bγ, sequence (P24534 whole entry, chain 1 of 2): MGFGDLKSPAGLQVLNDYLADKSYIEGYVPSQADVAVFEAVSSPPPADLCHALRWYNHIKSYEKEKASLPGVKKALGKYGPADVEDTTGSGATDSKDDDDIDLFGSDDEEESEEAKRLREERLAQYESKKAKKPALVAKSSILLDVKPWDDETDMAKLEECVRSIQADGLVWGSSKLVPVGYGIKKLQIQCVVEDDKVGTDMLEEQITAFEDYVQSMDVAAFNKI
eEF1B(αβγ)3 complex, reconstituted from full-length eEF1Bα, eEF1Bβ and eEF1Bγ, sequence (P26641 whole entry, chain 3 of 2): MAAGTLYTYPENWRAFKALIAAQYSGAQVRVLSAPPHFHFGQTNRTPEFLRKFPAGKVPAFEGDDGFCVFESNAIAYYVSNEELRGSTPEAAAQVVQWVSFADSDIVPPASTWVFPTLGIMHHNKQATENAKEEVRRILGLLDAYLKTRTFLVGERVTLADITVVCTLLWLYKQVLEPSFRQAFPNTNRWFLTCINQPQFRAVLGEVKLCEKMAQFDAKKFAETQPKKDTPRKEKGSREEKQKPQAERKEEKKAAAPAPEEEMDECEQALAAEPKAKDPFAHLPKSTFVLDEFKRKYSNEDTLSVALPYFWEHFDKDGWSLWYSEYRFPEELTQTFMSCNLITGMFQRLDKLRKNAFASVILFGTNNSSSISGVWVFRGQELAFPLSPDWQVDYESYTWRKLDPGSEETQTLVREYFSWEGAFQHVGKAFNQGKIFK

Row | Binder | stoichiometry N [1] | stoichiometry N [2] | stoichiometry N [3] | stoichiometry N [4]
1 | B1 | 3 | 3 | 3 | 
2 | B2 |  |  |  | 6
